Values quoted from earlier work, collected in publication PMC6978450.

Key:
IL-13Rα1 (Mus musculus) = IL-13Rα1 (Mus musculus) (UniProt O09030)
IL-13Rα2 (Mus musculus) = IL-13Rα2 (Mus musculus) (UniProt O88786)
Chain of UniProt O88786 (O88786 22-334): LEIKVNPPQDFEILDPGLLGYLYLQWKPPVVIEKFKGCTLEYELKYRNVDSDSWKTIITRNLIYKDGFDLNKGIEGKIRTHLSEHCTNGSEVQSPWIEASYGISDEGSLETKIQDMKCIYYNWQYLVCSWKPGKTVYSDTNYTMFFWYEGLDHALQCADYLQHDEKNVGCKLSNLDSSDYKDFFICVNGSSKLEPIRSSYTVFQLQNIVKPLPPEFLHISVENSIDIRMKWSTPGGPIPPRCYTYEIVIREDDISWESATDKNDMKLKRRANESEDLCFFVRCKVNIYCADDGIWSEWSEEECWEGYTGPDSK

Chain of UniProt O09030 (O09030 26-340): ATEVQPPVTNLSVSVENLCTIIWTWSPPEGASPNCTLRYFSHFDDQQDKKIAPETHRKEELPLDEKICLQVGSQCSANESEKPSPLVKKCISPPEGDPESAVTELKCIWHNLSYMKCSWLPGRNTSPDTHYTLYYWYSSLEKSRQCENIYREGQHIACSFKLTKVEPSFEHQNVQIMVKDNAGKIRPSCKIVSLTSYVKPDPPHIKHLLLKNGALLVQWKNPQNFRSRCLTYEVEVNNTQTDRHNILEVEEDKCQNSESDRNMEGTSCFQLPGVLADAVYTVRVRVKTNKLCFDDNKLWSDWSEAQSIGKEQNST

Q: Which results are given for IL-13 (from UniProt P20109)?
A: Kd (IL-13Rα1 (Mus musculus)): 30 nM; Kd (IL-13Rα2 (Mus musculus)): 0.44 nM
